target: Human FcRn (human) (UniProt P55899); assay: BLI; human FcRn immobilised, antibody or ADC as analyte; performed as previously reported (refs. 35, 36); no conditions told
UniProt P55899, sequence (P55899 24-365): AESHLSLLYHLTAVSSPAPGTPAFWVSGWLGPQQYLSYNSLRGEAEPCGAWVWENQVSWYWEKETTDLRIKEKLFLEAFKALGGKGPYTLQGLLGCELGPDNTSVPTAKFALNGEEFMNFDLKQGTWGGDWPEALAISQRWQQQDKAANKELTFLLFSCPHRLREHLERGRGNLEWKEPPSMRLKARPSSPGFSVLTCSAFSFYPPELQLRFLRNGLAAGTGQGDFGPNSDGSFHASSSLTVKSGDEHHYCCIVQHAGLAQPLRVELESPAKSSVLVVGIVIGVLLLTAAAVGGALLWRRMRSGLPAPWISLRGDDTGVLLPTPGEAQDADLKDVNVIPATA

| Kd [nM] | koff [s⁻¹] | kon [M⁻¹ s⁻¹] | Substance |
| --- | --- | --- | --- |
| 5.65 | 0.00377 | 667000 | Trastuzumab (Herceptin), human IgG1 (antibody) |
| 5.6 | 0.000848 | 152000 | Trastuzumab-K248-MMAE (5a) (antibody) |
| 7.22 | 0.00383 | 530000 | Trastuzumab-K288-MMAE (5b) (antibody) |

Source: article PMC10119932
